biological target: HLA-A*02:01 (Homo sapiens, UniProt P04439, D140Y/D185E/D98H/E176V/E277Q/G131W/G231S/I119V/I121R/I166T/I218V/L300P/L318F/N151K/N90K/P208A/P217A/Q86G/Q94H/R138H/R169H/T345S); assay: MHC binding assay (UV-ligand exchange, anti-β2m ELISA, peptide exchange yield); details: binding to HLA-A*02:01
Outline: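 Yield of stabilized complexes quantified via the β2m light chain in an ELISA (streptavidin capture, 100-fold diluted monomers, HRP anti-β2m 2 ug/ml at 37 °C, TMB, A450). The complexes come from UV-triggered replacement of a photocleavable ligand by the candidate peptide.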

Substance | Peptide exchange (MHC class I binding score, peptide exchange yield)
572 (ALADLIEKELSV; listed as Homo sapiens) [compound 572] | “+++” (>50 = +++)
303 (AILPQLFMV; listed as Homo sapiens) [compound 303] | “++++” (>75% = ++++)
382 (ALQNYIKEA; listed as Homo sapiens) [compound 382] | “++” (>20% = ++)
78 (SLFSSLEPQIQPV; listed as Homo sapiens) [compound 78] | “+++” (>50 = +++)
552 (GLLDLPFRVGV; listed as Homo sapiens) [compound 552] | “+++” (>50 = +++)
93 (LLQAIKLYL; listed as Homo sapiens) [compound 93] | “++” (>20% = ++)
585 (ALWDLAADKQTL; listed as Homo sapiens) [compound 585] | “++++” (>75% = ++++)
315 (YLQDVVEQA; listed as Homo sapiens) [compound 315] | “+++” (>50 = +++)
188 (GLFPVTPEAV; listed as Homo sapiens) [compound 188] | “+++” (>50 = +++)
77 (ILVEADGAWVV; listed as Homo sapiens) [compound 77] | “++++” (>75% = ++++)
358 (ALDEYTSEL; listed as Homo sapiens) [compound 358] | “++++” (>75% = ++++)
155 (RVANLHFPSV; listed as Homo sapiens) [compound 155] | “+++” (>50 = +++)
486 (AVMESIQGV; listed as Homo sapiens) [compound 486] | “+++” (>50 = +++)
389 (LLADVTHLL; listed as Homo sapiens) [compound 389] | “++” (>20% = ++)
427 (ALLPLSPYL; listed as Homo sapiens) [compound 427] | “+++” (>50 = +++)
332 (YLISELEAA; listed as Homo sapiens) [compound 332] | “+++” (>50 = +++)
165 (SLLDEIRAV; listed as Homo sapiens) [compound 165] | “+++” (>50 = +++)
62 (VLLDVSAGQLLM; listed as Homo sapiens) [compound 62] | “++++” (>75% = ++++)
91 (IMQDFPAEIFL; listed as Homo sapiens) [compound 91] | “++++” (>75% = ++++)
370 (SLLQDLVSV; listed as Homo sapiens) [compound 370] | “+++” (>50 = +++)
24 (SLSDGLEEV; listed as Homo sapiens) [compound 24] | “++” (>20% = ++)

Substance | Peptide exchange (MHC class I binding score, peptide exchange yield)
136 (YLADPSNLFVV; listed as Homo sapiens) [compound 136] | “+++” (>50 = +++)
275 (YLVYILNEL; listed as Homo sapiens) [compound 275] | “++” (>20% = ++)
516 (AVGPASILKEV; listed as Homo sapiens) [compound 516] | “++” (>20% = ++)
138 (YQYPRAILSV; listed as Homo sapiens) [compound 138] | “+++” (>50 = +++)
280 (VLPDPEVLEAV; listed as Homo sapiens) [compound 280] | “+++” (>50 = +++)
357 (SMHDLVLQV; listed as Homo sapiens) [compound 357] | “+++” (>50 = +++)
426 (RLADKSVLV; listed as Homo sapiens) [compound 426] | “+++” (>50 = +++)
273 (NLFQSVREV; listed as Homo sapiens) [compound 273] | “++” (>20% = ++)
73 (NIFDLQIYV; listed as Homo sapiens) [compound 73] | “+++” (>50 = +++)
346 (LLDSKVPSV; listed as Homo sapiens) [compound 346] | “+++” (>50 = +++)
476 (ALMERTGYSMV; listed as Homo sapiens) [compound 476] | “+++” (>50 = +++)
232 (ALLEAQDVELYL; listed as Homo sapiens) [compound 232] | “++” (>20% = ++)
126 (VLAYFLPEA; listed as Homo sapiens) [compound 126] | “++++” (>75% = ++++)
305 (SIANFSEFYV; listed as Homo sapiens) [compound 305] | “++++” (>75% = ++++)
374 (FLLQQHLISA; listed as Homo sapiens) [compound 374] | “++” (>20% = ++)
549 (AMLENASDIKL; listed as Homo sapiens) [compound 549] | “+++” (>50 = +++)
116 (YHIDEEVGF; listed as Homo sapiens) [compound 116] | “+” (>10% = +)
269 (RVLEVGALQAV; listed as Homo sapiens) [compound 269] | “++” (>20% = ++)
614 (LLLPDQPPYHL; listed as Homo sapiens) [compound 614] | “+++” (>50 = +++)
27 (ILADIVISA; listed as Homo sapiens) [compound 27] | “+++” (>50 = +++)
181 (LLWAGTAFQV; listed as Homo sapiens) [compound 181] | “+++” (>50 = +++)

Substance | Peptide exchange (MHC class I binding score, peptide exchange yield)
30 (LILDWVPYI; listed as Homo sapiens) [compound 30] | “+++” (>50 = +++)
343 (SLLEVNEESTV; listed as Homo sapiens) [compound 343] | “+++” (>50 = +++)
209 (KLIESKHEV; listed as Homo sapiens) [compound 209] | “++” (>20% = ++)
615 (VLPPDTDPA; listed as Homo sapiens) [compound 615] | “++” (>20% = ++)
528 (SVAEGRALMSV; listed as Homo sapiens) [compound 528] | “+++” (>50 = +++)
187 (RQISIRGIVGV; listed as Homo sapiens) [compound 187] | “+++” (>50 = +++)
498 (KLWTGGLDNTV; listed as Homo sapiens) [compound 498] | “+++” (>50 = +++)
125 (VQIHQVAQV; listed as Homo sapiens) [compound 125] | “+++” (>50 = +++)
505 (SLAPGDVVRQV; listed as Homo sapiens) [compound 505] | “++” (>20% = ++)
567 (SLLPLDDIVRV; listed as Homo sapiens) [compound 567] | “+++” (>50 = +++)
434 (KVSNSGITRV; listed as Homo sapiens) [compound 434] | “++” (>20% = ++)
328 (ALNDQVFEI; listed as Homo sapiens) [compound 328] | “+++” (>50 = +++)
133 (KVLSNIHTV; listed as Homo sapiens) [compound 133] | “++” (>20% = ++)
221 (ALYEEGLLL; listed as Homo sapiens) [compound 221] | “++” (>20% = ++)
317 (SLAALVVHV; listed as Homo sapiens) [compound 317] | “+++” (>50 = +++)
471 (YLYNNMIAKI; listed as Homo sapiens) [compound 471] | “+++” (>50 = +++)
440 (ALADGVTMQV; listed as Homo sapiens) [compound 440] | “++” (>20% = ++)
378 (ALGYFVPYV; listed as Homo sapiens) [compound 378] | “+++” (>50 = +++)
362 (TLYGLSVLL; listed as Homo sapiens) [compound 362] | “+++” (>50 = +++)
